Reference: paper PMC9450138 (Redox Biology, 2022)

Target: T1, Alexa Fluor 546 labelled PRDX1 (UniProt Q06830 1-199, Alexa Fluor 546 label (site not stated))
T1 sequence (looked up): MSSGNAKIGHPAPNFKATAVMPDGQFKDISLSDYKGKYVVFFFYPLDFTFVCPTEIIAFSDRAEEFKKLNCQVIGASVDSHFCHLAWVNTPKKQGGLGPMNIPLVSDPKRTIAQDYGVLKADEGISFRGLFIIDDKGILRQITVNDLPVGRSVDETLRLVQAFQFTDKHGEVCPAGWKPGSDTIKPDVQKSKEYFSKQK
Experiment: other fluorescence titration

B1: RAD51 labelled with the QSY 35 quencher (natural protein, UniProt Q06609 1-339, looked up)
chain: MAMQMQLEANADTSVEEESFGPQPISRLEQCGINANDVKKLEEAGFHTVEAVAYAPKKELINIKGISEAKADKILAEAAKLVPMGFTTATEFHQRRSEIIQITTGSKELDKLLQGGIETGSITEMFGEFRTGKTQICHTLAVTCQLPIDRGGGEGKAMYIDTEGTFRPERLLAVAERYGLSGSDVLDNVAYARAFNTDHQTQLLYQASAMMVESRYALLIVDSATALYRTDYSGRGELSARQMHLARFLRMLLRLADEFGVAVVITNQVVAQVDGAAMFAADPKKPIGGNIIAHASTTRLYLRKGRGETRICKIYDSPCLPEAEAMFAINADGVGDAKD
modifications: QSY 35 quencher label (site not stated)
In the case of B1, the “apparent KD (first of two)” value is reported as 140 nM and the “apparent KD (second of two)” value is reported as 610 nM.
